Numbered stars: 1 amine (or outer) side, 2 acyl side, 3 side chain; on linkers, the order of the positions; unused ones are H or OH. Square brackets hold non-standard residues; d marks the D form. Ends that are not written are not given here. Cys(S-tBut) = S-t-butylthio-L-cysteine, CC(C)(C)SSC[C@H](N[*:1])C(=O)[*:2]; Cys(tBut) = S-t-butyl-L-cysteine, CC(C)(C)SC[C@H](N[*:1])C(=O)[*:2]
T1: ferroportin tagged at the C-terminus with green fluorescent protein (ECR293/Fpn-GFP cells)
T1 sequence (Q9NP59 whole entry, species assumed, looked up): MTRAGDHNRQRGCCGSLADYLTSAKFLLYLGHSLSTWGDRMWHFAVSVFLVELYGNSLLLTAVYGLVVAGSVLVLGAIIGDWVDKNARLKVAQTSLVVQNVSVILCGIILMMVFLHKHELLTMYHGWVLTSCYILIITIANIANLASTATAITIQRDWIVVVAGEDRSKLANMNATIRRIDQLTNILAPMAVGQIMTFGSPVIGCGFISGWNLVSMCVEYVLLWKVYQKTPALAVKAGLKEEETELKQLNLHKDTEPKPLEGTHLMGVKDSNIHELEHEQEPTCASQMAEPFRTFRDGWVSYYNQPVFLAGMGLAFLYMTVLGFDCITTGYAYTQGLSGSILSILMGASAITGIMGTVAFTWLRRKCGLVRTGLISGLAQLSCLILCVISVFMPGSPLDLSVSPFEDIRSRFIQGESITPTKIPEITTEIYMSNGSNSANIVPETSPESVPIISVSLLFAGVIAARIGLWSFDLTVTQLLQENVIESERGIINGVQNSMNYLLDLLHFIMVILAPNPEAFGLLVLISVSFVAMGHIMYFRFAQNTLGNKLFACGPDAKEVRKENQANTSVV

B1: Hep25 (peptide)
peptide: DTHFPICIFCCGCCHRSKCGMCCKT
modifications: disulfide (positions not given here); also: 4 disulfide bonds, pairing not given here
B2: Pr24 (peptide)
peptide: FICIPFHTD
modifications: N-terminal R3 = Ursodeoxycholate-(PEG11)-; retroinverted (D-amino acids); C-terminal amide
B3: Hep9C7-tBut (peptide)
peptide: DTHAPI[Cys(tBut)]IF-NH2
modifications: N-terminus assumed
SMILES: CC[C@H](C)[C@H](NC(=O)[C@H](CSC(C)(C)C)NC(=O)[C@@H](NC(=O)[C@@H]1CCCN1C(=O)[C@H](C)NC(=O)[C@H](Cc1c[nH]cn1)NC(=O)[C@@H](NC(=O)[C@@H](N)CC(=O)O)[C@@H](C)O)[C@@H](C)CC)C(=O)N[C@@H](Cc1ccccc1)C(N)=O
B4: Pr23 (peptide)
peptide: FICIPFHTD
modifications: N-terminal R2 = Chenodeoxycholate-(PEG11)-; retroinverted (D-amino acids); C-terminal amide
B5: Pr28 (peptide)
peptide: FICIPFHTD
modifications: not fully specified; N-terminal R5 = 2(Palmitoyl)-Dap(PEG11)-, Dap = diaminopropionic acid; retroinverted (D-amino acids); C-terminal amide
B6: Pr27 (peptide)
peptide: FICIPFHTD
modifications: N-terminal R4 = Palmitoyl-(PEG11)-; retroinverted (D-amino acids); C-terminal amide
B7: Cyc-3 (peptide)
peptide: HFPICIF
modifications: not fully specified; C-terminal F carries R1 = -CONH2-CH2-CH2-S; disulfide cyclized (double underlining lost)
B8: riHep7ΔDT (peptide)
peptide: [dF][dI][dC][dI][dP][dF][dH]-NH2
modifications: N-terminus assumed
SMILES: CC[C@@H](C)[C@@H](NC(=O)[C@H](N)Cc1ccccc1)C(=O)N[C@H](CS)C(=O)N[C@@H](C(=O)N1CCC[C@@H]1C(=O)N[C@H](Cc1ccccc1)C(=O)N[C@H](Cc1c[nH]cn1)C(N)=O)[C@H](C)CC
B9: Hep9C7-SStBut (peptide)
peptide: DTHAPI[Cys(S-tBut)]IF-NH2
modifications: N-terminus assumed
SMILES: CC[C@H](C)[C@H](NC(=O)[C@H](CSSC(C)(C)C)NC(=O)[C@@H](NC(=O)[C@@H]1CCCN1C(=O)[C@H](C)NC(=O)[C@H](Cc1c[nH]cn1)NC(=O)[C@@H](NC(=O)[C@@H](N)CC(=O)O)[C@@H](C)O)[C@@H](C)CC)C(=O)N[C@@H](Cc1ccccc1)C(N)=O

What follows are binders tested against T1, ferroportin tagged at the C-terminus … (assay: cell-based or functional assay).

B1 was tested, and the “EC50; loss of fluorescence of Fpn-GFP cells” value was 5 to 15 nM.

Target: T1, ferroportin tagged at the C-terminus …
Assay: cell-based or functional assay
Remark: another data set of the same source

Going from B2 to B3, the “EC50 (nM); loss of fluorescence of Fpn-GFP cells, flow cytometry” value (from here on “EC50 (nM); loss”) rises from 1000 nM to over 10000 nM.

First: DTHFPIC-NH2 [Hep7 (Hep1-7)]
Second: DTHFPICI-NH2 [Hep8 (Hep1-8)]
The “EC50 (nM); loss” value of the first is higher: over 10000 nM for the first, 2000 nM for the second.

First: DTHFPIAIFC-NH2 [Hep10 (Hep1-10 C7A)]
Second: HFPICI-NH2 [Hep6 (Hep3-8)]
The “EC50 (nM); loss” value of the first is 10-fold lower: 100 nM for the first, 1000 nM for the second.

Compared with B4, B1 is 10-fold lower in “EC50 (nM); loss” value: 100 nM for the first, 10 nM for the second.

HFPIC-NH2 [Hep5 (Hep3-7)] and DTHFPIAIF-NH2 [Hep9-C7A] cannot be ordered by “EC50 (nM); loss” value: over 10000 nM for the first, over 10000 nM for the second.

Compared with B5, B6 is 150-fold lower in “EC50 (nM); loss” value: 3000 nM for the first, 20 nM for the second.

First: B7
Second: B8
The “EC50 (nM); loss” value of the first is higher: over 10000 nM for the first, 150 nM for the second.

Compared with FPIC-NH2 [Hep4 (Hep4-7)], B9 is lower in “EC50 (nM); loss” value: over 10000 nM for the first, 700 nM for the second.

First: FICIPFHTD (retroinverted: all D-amino acids; C-terminal amide) [Pr12]
Second: DTHAPICIF-NH2 [Hep9F4A]
The “EC50 (nM); loss” value of the first is lower: 900 nM for the first, over 3000 nM for the second.

Compared with HFPICIF-NH2 [Hep7ΔDT (Hep3-9)], DTHFPISIF-NH2 [Hep9-C7S] is higher in “EC50 (nM); loss” value: 700 nM for the first, over 10000 nM for the second.

Source: patent publication US20120040894A1 (REGENTS OF THE UNIVERSITY OF CALIFONIRA, published 2012)
